Assay results as given in the RNAGym collection of RNA variant scans (doi:10.1093/molbev/msab373).

B1: Azoarcus group I ribozyme (parent)
chain: GUGCCUUGCGCCGGGAAACCACGCAAGGGAUGGUGUCAAAUUCGGCGAAACCUAAGCGCCCGCCCGGGCGUAUGGCAACGCCGAGCCAAGCUUCGGCGCCUGCGCCGAUGAAGGUGUAGAGACUAGACGGCACCCACCUAAGGCAAACGCUAUGGUGAAGGCAUAGUCCAGGGAGUGGCGAAAGUCACACAAACCGG

Variants of: B1
Assay: reverse-splicing fitness (ratio to wild type); higher = more active; in vitro selection; Mg2+ level not given
Procedure, shortened: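 An in vitro group I ribozyme library with randomized positions was T7-transcribed and gel-purified. In triplicate, 10 pmol RNA in EPPS pH 7.5 was reacted with 50 pmoles of a 30-nt RNA substrate for 1 h at 37 °C across several added MgCl2 levels (1–48 mM), then stopped with EDTA. Products were reverse transcribed from a substrate-complementary primer, PCR-amplified and sequenced (HiSeq 4000). Fitness is a variant's read proportion after selection over that before, normalised to wild type.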

Variant | reverse-splicing fitness
C82A A111G A120G A145U C150A C169A U176A | 0.0161
C82A A111G A120G A145U C150A C169A U176C | 0.0121
C82A A111G A120G A145U C150A C169A U176G | 0.00585
C82A A111G A120G A145C C169U U176G | 0.00388
C82A A111G A120G A145C C169U U176C | 0.0129
C82A A111G A120G A145C C169U U176A | 0.0193
C82A A111G A120G C169G U176A | 0.0226
C82A A111G A120G C169G U176C | 0.0229
C82A A111G A120G C169G U176G | 0.00458
C82A A111G A120G C150A U176C | 0.0186
C82A A111G A120G C150A U176G | 0.00961
C82A A111G A120G C150A U176A | 0.0129
C82A A111G A120G C150G C169U | 0.00856
C82A A111G A120G C150G C169A | 0.00929
C82A A111G A120G C150G C169G | 0.00739
C82A A111G A120G C150A C169A | 0.0103
C82A A111G A120G C150A C169U | 0.00823
C82A A111G A120G C150A C169G | 0.00987
C82A A111G A120G A145G C150U C169A | 0.0119
C82A A111G A120G A145G C150U C169U | 0.011
C82A A111G A120G A145G C150U C169G | 0.0113

Variant | reverse-splicing fitness
C82A A111G A120G U176G | 0.00613
C82A A111G A120G U176A | 0.0146
C82A A111G A120G U176C | 0.0182
C82A A111G A120G A145G C150A C169A U176C | 0.0218
C82A A111G A120G A145G C150A C169A U176A | 0.0205
C82A A111G A120G A145G C150A C169A U176G | 0.00687
C82A A111G A120G C169G | 0.0125
C82A A111G A120G C169A | 0.0105
C82A A111G A120G C169U | 0.0111
C82A A111G A120U A145C C150G C169A U176A | 0.00214
C82A A111G A120U A145C C150G C169A U176C | 0.00205
C82A A111G A120U A145C C150G C169A U176G | 0.00179
C82A A111G A120G C150G C169U U176G | 0.00657
C82A A111G A120G C150G C169U U176A | 0.0124
C82A A111G A120G C150G C169U U176C | 0.0135
C82A A111G A120G A145G C150A C169G | 0.00854
C82A A111G A120G A145G C150A C169U | 0.00938
C82A A111G A120G A145G C150A C169A | 0.0103
C82A A111G A120U A145C C150A C169A | 0.00211
C82A A111G A120U A145C C150A C169U | 0.00264
C82A A111G A120U A145C C150A C169G | 0.00279

Variant | reverse-splicing fitness
C82A A111G A120G A145G C169U U176C | 0.0173
C82A A111G A120G A145G C169U U176A | 0.019
C82A A111G A120G A145G C169U U176G | 0.00492
C82A A111G A120G A145C C150A C169U | 0.00881
C82A A111G A120G A145C C150A C169G | 0.00922
C82A A111G A120U A145C C169G | 0.00315
C82A A111G A120U A145C C169U | 0.00349
C82A A111G A120U A145C C169A | 0.00203
C82A A111G A120G A145U C169G U176C | 0.0158
C82A A111G A120G A145U C169G U176G | 0.00452
C82A A111G A120G A145U C169G U176A | 0.0122
C82A A111G A120G A145G C150A U176C | 0.0203
C82A A111G A120G A145G C150A U176A | 0.0103
C82A A111G A120G A145G C150A U176G | 0.00899
C82A A111G A120U A145C C150A | 0.00468
C82A A111G A120U A145C C150U | 0.0111
C82A A111G A120U A145C C150G | 0.00637
C82A A111G A120G A145C C150A C169U U176A | 0.0207
C82A A111G A120G A145C C150A C169U U176G | 0.00484
C82A A111G A120G A145C C150A C169U U176C | 0.0117
C82A A111G A120U A145C C150G C169A | 0.0025

Variant | reverse-splicing fitness
C82A A111G A120U A145C C150G C169G | 0.00351
C82A A111G A120U A145C C150G C169U | 0.00332
C82A A111G A120U A145C C150G U176G | 0.00262
C82A A111G A120U A145C C150G U176A | 0.00295
C82A A111G A120U A145C C150G U176C | 0.00393
C82A A111G A120U A145C C150G C169U U176C | 0.0028
C82A A111G A120U A145C C150G C169U U176A | 0.00268
C82A A111G A120U A145C C150G C169U U176G | 0.00231
C82A A111G A120G A145U | 0.015
C82A A111G A120G A145G | 0.0165
C82A A111G A120G A145C C169G U176A | 0.0248
C82A A111G A120G A145C C169G U176C | 0.0178
C82A A111G A120G A145C C169G U176G | 0.0046
C82A A111G A120G C150U C169U U176A | 0.023
C82A A111G A120G C150U C169U U176G | 0.00738
C82A A111G A120G C150U C169U U176C | 0.0179
C82A A111G A120G C150U C169A U176A | 0.0153
C82A A111G A120G C150U C169A U176C | 0.0173
C82A A111G A120G C150U C169A U176G | 0.00549
C82A A111G A120G A145C C169A U176G | 0.00385
